This series can be described thus: protease stability score; higher = more stable; yeast display proteolysis, trypsin and chymotrypsin.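 Further: relative to predicted unfolded state with 0 unfolded-like and 1 meaning tenfold more protease.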
In turn, “TEDEKVNDLAMEEIYTLMLTGDEERMEELFDPNVRMIIDGRRHVGREVFKDHMREWRWERTHVEDQRTFDGRAILHTRVDVTVGDKRRDVRIHIISSKINGRWVIKRIIIE” gave a protease stability score of 0.758.
In the case of “HEEDEMAIKIVELFIHALHTGNEELLHNLLDPEVRLTVDGRRIHGRHWVLRELLHIRVHDIHWTDIDKVNGKIELHTRQDGDVDGRRHEVNVTLVVIKVDGQWILHSVMVE”, the protease stability score is 2.09.
In the case of “SEELRILVELVSKFYDAMKTGDEKTLKELADPNMRIIVGDKVLHGMESLKTHLKRIDHIYVHHFDYKKVDVQGDKVHVRGHSNLVLEFENHREEVIIHENWIVTKYNGRWSLESLEIR”, the protease stability score came out at 1.49.
“DEEEETMERALRETLHFINTGDEDSMEELMDPNWRIHIDGKDLHGWKFFQHLLRRADHIHIHIELKDVRRVGDKLELDGRLHVIYFIDGQEIHKVVDTHIYMIKINGRWHHKFIEIK” returned a protease stability score of 2.15.
Consider “SEDEDISRNFLELEWKKHMTGDWRTFAENIDPNARVDIDGVEFHGRELISRLMHEKIRKHGVKIKHLHIDHVSSQGDKIHINTTLVGLFNGRDTHLEVHIVITKINGRWVLQEFHFD”, for which the protease stability score amounted to 0.591.
Under “TDEEKETEEHRKHFEHYERTGDWRELERLFDPNARLIIGDKILHGRELVTRWMFEFVKEMRINHIELHTMEIQGEKIHLDITVHVKFNGQERDIRVTEIHKKFDGRWTIEQIHFN” stands 1.46; under “DEDEKRWFDRADEVRRQWETGDFERHLRLMDPHVRMEVQQGDKHEEYHGRENVMEIIRQELERVKNVKLEVTDLEIQGEKVILRLKLHVNGRDIDIYIDIVFINGRIKHIRIRIQER”, 1.38; under “DERKKDAERMVEWIMHLWETGNFERLFRLADPHVRFILHQGDKELHFHGRELVEEAIFRLLLHIRIDDRIDRRVHIFPNRLDIHGQVHVHVGDKRHDLIIHIEVFIIDGKLKRIEIEIE”, 1.49.
For the sequence “SEEKKFLEKAHREILHLYKTGDEDRMSELADPDVRMRLVINGQERHHHGREEFERVFREMLDRFGVKHVEDEDSDLVNGQVHIKGTERFNGKEVRFNIIIVWVDGRVHMLSVEYR”, the protease stability score worked out at 0.264.
As for “DEIKDHVEHASRLLLETYETGDEHTLERLVDPHVKLEVNGQEHVGRETTRWMLEFFKNLKIRIEDVRWQGNKIEIHSILHFNGKDLEMIYFAEKVDGRWVIRSVRTT”, the figure is 1.38.
Under “DEERTLVEELIQIFVEALETGDFETLSKMFDPHALFLQGDKRFVGRKDIEKWIHDLVRRLGVNHIEIDKITVQGEKAHVDTRVHIGDKTSTIHILIVKVNGRWFVEEIRYH” stands 1.17.
As for “REEEEHAHRIFEILVRLWLTGDEDTYLNLADPHDLIEIDQGDKRDENHGRESAFHLWEWFLREMRIKRMILRDERVQGEKLEFDVEVRGNINGVDLRFRVHIIIVVINGRFKSSKVILN”, the figure is 0.759.
Sequence “SELEEDMRYLLKLILDAFRTGDEHTFARLFDPHVRIEIGDKEFVGREFVLHHAHQLRIKRSHFNVEHFEWQGNKIRMHGILHFHGRFDGQERESYVDIHIVIEKVDGRWLVKSLHIH” had a protease stability score of 1.63.
Sequence “SEEQEVARDFFKILTHFHQTGNEEIVHELFDPNVRLHVGDKEVHGREEFIKVERELRTDDMHLRHVELQGEFIRIDVRAKGRVNGRDLEFHVHIVVRKVNGRWILTSLHIK” gave a protease stability score of 0.446.
Under “SHEEHEMHNALKLLLDAWRTGDEDSLNNNADPRMKIKVNGKEFVGMEHMTHFLRELLEELRFTDSTVTELDIVNGVLISVTRLHIEVGDKRMDFHTRLVFTKVNGRWRLHSLVLI” stands 1.99.
Under “SEEEKKSKDALRFLEEVWKTGDWDDFRKMIDPHVRIEVNGRTYHGMEDAEKFARDLLKRVKNMKVSIRHIETQGDKMIVHGELNIDGVHSEIQIFTDKIDGRWLLKEVNFI” stands 0.498; under “SEKEEQARKLAKDWSHDTDTGDFKSIFDLIDPDVRVEIGDKRFVGWELVVKWHEHHRHEFGVTQIRHRVDDMELQGEKVIVRGTLIYDGVDFKVHLILEVINGRIRRVEIRIE”, 1.04.
As for “SEEEEMIEKLIRLLVKAHETGDWDTEHELMDPHVRIDINGKEIIGREDWHEHVKRMGFKHSRVEIRIRHLTTQGEKIHIHGELRVIYDIDGRTIDRSTEVHYHLRKINGKWLITEIEIR”, the figure is 1.69.
Take “DEDREAMEELVRRTLKASSTGDEELSDQLMDPNTRIEVNGKHLIGREMWIKFLVELRIIFHEVHVHDVRSVGDKVDADVHVIFELRINGKRIDIETRVTFYFRKINGRWLVKSIRFE”: the protease stability score came out at 1.07.
Under “SEDQHDAEWALRLFVRLHETGDFEEIYRNADPNMRWFVNGVDSHGRENASKLLHKLMDDLGIDHVQIEHVELRVQGEKIIVHMRVTQVINGREVDSRIEVHMEKFDGKWELKHVELRIH” stands 1.31; under “SEEDKLAREIFEETIRILLTGDEEKLEELLDPRVRVHIHIGDKRIDLHGREEMSKWLHEIRIEHFHIDDLKVQGDKLHADTHEVVRIGDKRIETRTEWELVVVNGRLKELHIRVK”, 1.74; under “DEEEERLEKLAEILIHYHLTGDFEILLEYADPNVQTEFDGVEIHGMELSNKFLEKSNKKLGVDHRHYKSYSAYGNKVTVLSEIHVNGRKMEVRFRWDVVNGKIQTLHIHFD”, 1.05.
Under “DEEEELLKDLLRKWLEAMRTGDWEELERLLDPHVRIHIGDKDIHGRELFIELHERELKRIKNVKIVIDDKHIEFQGDKARVDGKLQEQVGDKEITHRVIIIMRVIDGKFESMEVRYV” stands 1.08; under “SEDEEVAERFLRLLIESLMTGDEDSFKSLLDPNDRLHIGEKHNHGRNLIVELLTRFGIELEHIELKSVEVINGRIHVNTHIRFIQGDKHIETEMRLNVDKIDGRWRLRSMHID”, 1.98.
As for “TEEEEHSKTLAEELLRVLLTGDEDTLHELFDPHARFHYGDKLHIGREEVTKALREVYERIDHYEVKHLEIQGDKVHVDGEHHIGDKSIRVRVHAWIVNGVVKQYHEHSL”, the figure is 1.02; as for “SEDEELSQKALEMVKHSSDTGDEKTTRQLMDPNYRMVIGDYELHGWELVVDFVRHARYDDLIMRRWDSQGDKIHLDGETIVNVGDKILHTRVRLIALKVNGQWKLNSVIFH”, 0.149.
The sequence “DDIEKDMERFTHVWLEAWRTGDEDLAKELFDPNTRVEQGDKKYHGRTEFVNLLSHIRIRDMRIHDIHYIVIDGKAIIDFDGELTIDVNGRFHRHRVIIHVEVIKINGQWEISQMRIEVR” registered a protease stability score of 1.11.
Under “SEEEKETRKNLHEFLESIITGDEDHLVNMMDPHARIEVGDWELVGRHKFHEFASKVKNLKLHIRNTEVYGDKVHIDSEINFNGQRRDMVVHAEKINGKWILKHTRYQ” stands 1.17; under “SEREEKIEHALRRLFEVILTGDERLANELLDPNVLLDVGDKKIHGREEVMRILHHWRIDKFEMHTHDIRLIGEKAHVDTISDRRVHVNGRTQDITERVHFVVLKVNGVWFIHSMHIH”, 1.59.
Take “DEDDDLALHMFELLLHVWTTGDERIMHELLDPHARLDFNGRTFHGREAFIHYMHEIFRHIRINDSTVRHIRVIDGRLDIESHVDIRVGDKRFEMETHLIVLKVDGKWQVTLYKLS”: the protease stability score was 1.4.
In turn, “SEELELAKWLLEEWIRAVETGDERTLKELADPDVKMHIGDKNHIGWEEYVRFLRHLRITVRRMEVKHMHVFDGRIHIHGHFDIEINIGDKHLRRHHDVEIILVVVDGKLTSIEIRNH” came in with a protease stability score of 1.5.
“DLDNILMKLFLKEVEEVERTGDERLIHELADPNVRVEQGDKKFHGRHEAVRIYMELGIKHSRLTDVKFFEGHVLIHVRIHVDGRDIDLTIFMHKIDGRWIIKSMKQD” yielded a protease stability score of 1.16.
Under “DESKDDSRRAVNLVVRTIQTGDWDLLIELLDPNVKIEINGQDLHGRETLFKTWLDEMRKLGVDRVHVELKHIEVQGEKVIVHVDVSVNGRDIKTEIIIHKVDGKWFIKSLHFK” stands 1.31; under “TEDEENVIEATRIFNRVLETGDEDSLKRLLDPNVRVNFDGVELIGWEDFLKFVFEWRKKAGITQVKSEPRDMDLQGNKVHNETILHINGRTFETRLVHEKVNGRWIARSIRFS”, 1.21.
The sequence “DHEEEQVRLAFEIFKTLQETGDEELLHHFFDPNARSDVDGREVVGRHAVEEWQRDLGVDHIHVHKFTFIDGRVEMHFTYTQGDKVIKVHIYVHKVDGKWDMHRIHVR” returned a protease stability score of 1.24.
The sequence “SERSEFITRLTREMIHAFETGDWKWLSELLDPNTRYHFRQGDKEFDMHGREEMVKMLEKILRHFGIDHFHIEDVKLYGDKVIVHHRSLVNGKEVHVRIEWDIVDGRIKSFNLDYHEN” had a protease stability score of 1.26.
As for “DHEDEHSEEMEQLIFTWLQTGDWEAFMKFLDPRVILHIGDKTVIGREKFIEFIEQFKNIRMKIHDVQVQGNKIHIDVRTDIDGREYREHIHIHIVNGRIRHIEVRHH”, the figure is 1.92; as for “DEDEEDKKWMSEHLENLIHTGDEENLLKLVDPHAKVLVDGRTRHGRETLETWLDRFLRELGVDRVESRITHFDRIDGKVHVIMSIHVNGVDFISHSISQKVNGRWVIRSLHYDER”, 0.587; as for “DEEEKEVHKFMDLLVRALETGDEDEFLSLVDPNARVEIGDKLLHGRESEHWLTEHIKKVAGVERFTHHIHLKDWTIFNGRVRVDGILHLDYGNFHVERRSDFIIYKVDGRWIMRSERVH”, 0.185.
Consider “DEHLEYVREIARLFWQLLSTGDEENLRKLFDPNARLDVNGQEFHGREEIIIFLRHWRMRSKDIRIHHVNVQGEKMEVDIHTDLEFEVGDFKYEEHTRVEIIVEKINGRWLVRHVKIR”, for which the protease stability score was 0.437.
Under “DEDTESATKALQLFIHLFITGDEEQLLRLLDPNARNDIGDYHRHGREFLEFFVERVKNVTFHLHDMRLELIGDKIHLIIHGDEWVNGVRLRTELVILMEKVNGRWVIRSVRVIFR” stands 1.75; under “SEEEKEVKEHLKIIHDVIRTGNEHDIKELMDPNMLLVFNGQKHIGRDHWEELLKKLGADHVHLHIRSFTIINGQARLETEVEWRAENRTIRRETEIVTDKINGRWIIHTIIFR”, 1.5; under “SEDEELAKEFAETMLHWEITGNEEAIRRNMDPNTKLDINGQHYIGRDDVLRVWHEIKKRLGVDHLEIHHIRVSVIGDKIRIEIDGHIRVNGREIETHIVIITEKINGKWIIRSMRYEFK”, 1.24.
In turn, “DHEERNIEDFLRELLHSLITGDEHTYRRLMDPNMQLFVDGRTFVGWKEALKWYQEILRRIDVIENIEIEQFSVFDGRVFVRVHLHMRVGDKTHHSFVHILLVKINGKWRLEEHEVV” returned a protease stability score of 1.79.
Turning to “SEEEDMARHFNELFIKMLKTGNEEEIKKMADPEVRIIIDVGDYIERDHGWEVLKREREWLGIKHIDIERAEIRVFDGRVHLKLDGRSNVNGKEIEVEIINDTEKINGRWRMKNLRYIFK”, the protease stability score amounted to 1.08.
As for “SEKHEEVKRALELEVQLLRTGDEDIYANLADPNTRLLFDGVDIIGMEKVMEWLRFIHEHIRIRDLKIRRVRLIDGQVDVDSQIEGHVGDKHINIKHEIVVEKINGRWYIRSRHWH”, the figure is 1.52; as for “DHDKEYADRSIELWLKSHETGDEELVMRLADPHARVYVGEYEDHGREMVMIMLRVLGVDHYSVRSWHVQGDKVSITGELQVGDKKFRSHLTVRKVNGRWLLSEVRIG”, 1.16.

The values are drawn from the NTF2 design screens of Basanta et al. (2020).
